Measurements taken from US20210139581A1 (Alector, published 2021).
Residue numbers refer to the chain shown, from its start.

B1: AB-14.9 (antibody, V domains shown)
VH: QVQLVQSGAEVKKPGASVKVSCKASGYTFTDYNYHWVRQAPGQGLEWIGFIYPSNGITGYAQKFQGRVTMTVDTSTSTVYMELSSLRSEDTAVYYCARSDVDYFDYWGQGTLVTVSS
VL: GIQMTQSPSSLSASVGDRVTITCRASQSVGTSTYSYMHWYQQKPGKAPKLLIKYAVNLESGVPSRFSGSGSGTDFTLTISSLQPEDFATYYCQHSWEIPLTFGQGTKLEIK
B2: AB-14.11 (antibody, V domains shown)
VH: B1 VH with D100S
VL: B1 VL with G1D, S28D, G30S, A55V, V56S
B3: AB-14.10 (antibody, V domains shown)
VH: B1 VH
VL: B1 VL with G1D, G30S, T31A, V56S, F87L
B4: Chimeric Ab #2 (antibody, V domains shown)
VH: EVQLQQSGPELVKPGASVKISCKASGYTFTDYNLHWVKLSHGKSLEWIGFIYPSNGITGYNQKFKNKATLTVDTSSSTAYMELRSLTSEDSAVYYCARSTVDYFDYWGQGTTLTVSS
VL: DIVLTQSPASLAVSLGQRATMSCRASQSVSTSTYSYMHWYQQKPGQPPKLLIKYASNLESGVPARFSGSGSGTDFTLNIHPVEEEDTATYYCQHSWEIPLTFGAGTKLELK
notes: Chimeric Ab with a VH-FR3 mutation that removes the predicted N-glycosylation site
B5: AB-64.1.4 (antibody, V domains shown)
VH: B1 VH with V20I, Y34L, V68A, M70L, V79A, V113L
VL: DIVLTQSPDSLAVSLGERATINCRASQSVSTSTYSYMHWYQQKPGQPPKLLIKYASNLESGVPDRFSGSGSGTDFTLTISSLQAEDVAVYYCQHSWEIPLTFGQGTKLEIK
notes: Variant of AB-64.1
B6: AB-64.1.13 (antibody, V domains shown)
VH: B1 VH with V20I, Y34L, G56V, V68A, M70L, V79A, V113L
VL: B5 VL
notes: Variant of AB-64.1
B7: AB-64.1.10 (antibody, V domains shown)
VH: B1 VH with V20I, Y34L, G56R, V68A, M70L, V79A, V113L
VL: B5 VL
notes: Variant of AB-64.1
B8: AB-64.1.1 (antibody, V domains shown)
VH: B1 VH with V20I, Y34L, G56Q, V68A, M70L, T74N, V79A, V113L
VL: B5 VL
notes: Variant of AB-64.1
B9: AB-64.1.12 (antibody, V domains shown)
VH: B1 VH with V20I, Y34L, G56R, V68A, M70L, T74N, T76A, V79A, V113L
VL: B5 VL
notes: Variant of AB-64.1
B10: AB-64.1.6 (antibody, V domains shown)
VH: B1 VH with V20I, Y34L, V68A, M70L, T74N, T76A, V79A, V113L
VL: B5 VL
notes: Variant of AB-64.1
B11: AB-64.1.3 (antibody, V domains shown)
VH: B1 VH with V20I, Y34L, G56V, V68A, M70L, T74N, V79A, V113L
VL: B5 VL
notes: Variant of AB-64.1
B12: AB-64.1.14 (antibody, V domains shown)
VH: B1 VH with V20I, Y34L, G56V, V68A, M70L, T74Q, V79A, V113L
VL: B5 VL
notes: Variant of AB-64.1
B13: AB-64.1.9 (antibody, V domains shown)
VH: B1 VH with V20I, Y34L, G56Q, V68A, M70L, T74N, S75P, V79A, V113L
VL: B5 VL
notes: Variant of AB-64.1
B14: AB-64.1.15 (antibody, V domains shown)
VH: B1 VH with V20I, Y34L, G56V, V68A, M70L, T74N, T76A, V79A, V113L
VL: B5 VL
notes: Variant of AB-64.1
B15: AB-64.1.7 (antibody, V domains shown)
VH: B1 VH with V20I, Y34L, V68A, M70L, T74N, S75P, V79A, V113L
VL: B5 VL
notes: Variant of AB-64.1
B16: AB-64.1.5 (antibody, V domains shown)
VH: B1 VH with V20I, Y34L, V68A, M70L, T74Q, V79A, V113L
VL: B5 VL
notes: Variant of AB-64.1
B17: AB-64.1.11 (antibody, V domains shown)
VH: B1 VH with V20I, Y34L, G56R, V68A, M70L, T74Q, V79A, V113L
VL: B5 VL
notes: Variant of AB-64.1
B18: AB-64.1 huIgG1 (antibody)
heavy: not shown
light: DIVLTQSPDSLAVSLGERATINCRASQSVSTSTYSYMHWYQQKPGQPPKLLIKYASNLESGVPDRFSGSGSGTDFTLTISSLQAEDVAVYYCQHSWEIPLTFGQGTKLEIKRTVAAPSVFIFPPSDEQLKSGTASVVCLLNNFYPREAKVQWKVDNALQSGNSQESVTEQDSKDSTYSLSSTLTLSKADYEKHKVYACEVTHQGLSSPVTKSFNRGEC
B19: AB-64.1 huIgG1 SELF (antibody, V domains shown)
VH: B1 VH with V20I, Y34L, V68A, M70L, T74N, V79A, V113L
VL: B5 VL

Biological target: T1, human CD33 on primary human monocyte-derived dendritic cells (human, UniProt P20138 18-364)
Experiment: cell-based or functional assay

T1 sequence (P20138 18-364): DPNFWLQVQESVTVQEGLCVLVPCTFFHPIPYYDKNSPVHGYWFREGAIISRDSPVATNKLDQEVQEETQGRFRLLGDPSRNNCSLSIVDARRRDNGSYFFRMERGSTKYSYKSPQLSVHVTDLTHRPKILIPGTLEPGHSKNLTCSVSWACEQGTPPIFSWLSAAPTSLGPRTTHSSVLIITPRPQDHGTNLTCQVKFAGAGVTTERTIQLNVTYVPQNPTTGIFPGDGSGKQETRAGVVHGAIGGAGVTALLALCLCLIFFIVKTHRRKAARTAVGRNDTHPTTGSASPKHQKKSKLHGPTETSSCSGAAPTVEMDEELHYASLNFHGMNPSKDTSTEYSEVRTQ

Binder	Maximal Downregulation (% CD33 remaining)	Receptor downregulation (EC50)
B1	26.1%	39.9 pM
B2	27.5%	47 pM
B3	20.9%	49.4 pM

Biological target: T2, human CD33 (human, UniProt P20138 18-259, limits assumed)
T2 construct: Human CD33 immobilized on the BLI sensor tip or the BIAcore C1 chip; also called Siglec-3
Experiment: SPR (BIAcore), Fab over CD33 on C1 chip
Method: The affinity parameters for 10 of the 88 humanized antibodies (AB-H1, AB-H3, AB-H6, AB-H11, AB-H22, AB-H24, AB-H26, AB-H63, AB-H64, and AB-H71) were measured in a separate experiment by a more sensitive technique, surface plasmon resonance (BIAcore), and compared to Chimeric Ab and Chimeric Ab #2. BIAcore measurements were performed as follows: human CD33 was immobilized on the surface of a C1 chip, and Fabs were injected for 300 s to monitor association, followed by a 900 s flow in running buffer to monitor dissociation. The Fabs were measured at 5 concentrations: a high concentration of 27 nM and 3-fold serial dilutions.

T2 sequence (P20138 18-259 limits assumed): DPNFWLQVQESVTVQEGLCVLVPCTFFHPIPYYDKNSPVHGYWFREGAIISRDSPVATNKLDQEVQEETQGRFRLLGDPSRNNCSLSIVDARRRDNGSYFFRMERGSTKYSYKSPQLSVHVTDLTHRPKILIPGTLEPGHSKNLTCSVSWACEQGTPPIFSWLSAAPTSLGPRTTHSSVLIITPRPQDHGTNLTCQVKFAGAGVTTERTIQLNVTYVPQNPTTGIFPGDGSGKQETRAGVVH

Binder	Fold Change to Chimeric Ab	Kd	koff	kon
B4	0.56 fold	2.89 nM	0.00286 s⁻¹	991000 M⁻¹ s⁻¹

Biological target: T2, human CD33
Experiment: BLI (ForteBio), Fab 100 nM on immobilized CD33
Method: (§1) The affinities (KD) of the humanized antibodies for human CD33 were measured for each antibody by BioLayer Interferometry in a ForteBio assay according to standard techniques (Estep et al. (2013) MAbs 5(2): 270-8). […] The assay was carried out at room temperature.
The affinity parameters of two of the antibodies, 64.1.2 and 64.1.8, were measured in a separate experiment by BIAcore, where they were directly compared to the parental antibody, AB-64.1, the parental humanized antibody, AB-H64, and the Chimeric Ab.

Binder	Kd
B5	0.639 nM
B6	1.45 nM
B7	1.45 nM
B8	0.429 nM
B9	0.922 nM
B10	0.836 nM
B11	0.647 nM
B12	0.743 nM
B13	1.06 nM
B14	0.412 nM
B15	0.391 nM
B16	0.697 nM
B17	1.15 nM

Biological target: T1, human CD33 on primary human …
Experiment: cell-based or functional assay
Remark: another data set of the same source

Binder	Maximal Downregulation (% CD33 remaining)	Receptor downregulation (pM, EC50)
B18	17.5%	36.2 pM
B19	10.9%	31.9 pM

Biological target: T2, human CD33
Experiment: BLI (ForteBio), Fab 100 nM on immobilized CD33
Remark: another data set of the same source
Method: as §1
The affinities of AB-H14 and its affinity-matured variants (Table 15) and AB-H63 and its affinity-matured variants (Table 16), for human CD33 were measured by Fortebio assay according to the method described in Example 1 above.

Binder	Fold affinity improvement over parental Ab (AB-H14)	Kd	koff	kon
B1	13.4 fold	0.217 nM	0.0002 s⁻¹	921000 M⁻¹ s⁻¹
B2	14.1 fold	0.205 nM	0.0002 s⁻¹	974000 M⁻¹ s⁻¹
B3	13.2 fold	0.221 nM	0.0002 s⁻¹	906000 M⁻¹ s⁻¹

Biological target: T1, human CD33 on primary human …
Experiment: cell-based or functional assay
Remark: another data set of the same source

Binder	Receptor downregulation (% remaining at 0.16 µg/mL antibody)
B5	38%
B6	35.9%
B7	39.8%
B8	37%
B9	38.5%
B10	37%
B11	38.5%
B12	38.4%
B13	37.4%
B14	38.9%
B15	35.9%
B16	37.3%
B17	38.6%

Biological target: T1, human CD33 on primary human …
Experiment: cell-based or functional assay
Remark: another data set of the same source

Binder	Maximal Downregulation (% CD33 remaining)	Receptor downregulation (EC50)
B4	23.2%	119 pM

Biological target: T1, human CD33 on primary human …
Experiment: cell-based or functional assay
Remark: another data set of the same source

Binder	Maximal Downregulation (% CD33 remaining)	Receptor downregulation (EC50)
B4	23.2%	119 pM
